Data on 1 substance can be found in patent US10869932B2, “Compositions and methods for modifying the surface of cells and methods of use” (UNIVERSITY OF UTAH RESEARCH FOUNDATION, priority 2014, dated 2020).

This assay addresses SDF-1 (Homo sapiens, UniProt P48061). Description: SDF-1 binding to rCXCR4 on the surface of MSCs. The format is cell-based. The following applies: FITC-SDF-1, 30 minutes at 4° C. How it is done:
FITC-labeled rSDF-1 (FITC-SDF-1) and rhodamine-labeled rCXCR4 (Rho-CXCR4) were prepared according to the manufacturer's protocol. MSCs were then modified with DMPE-PEG-Rho-CXCR4 or DMPE-PEG-CXCR4. Modified MSCs and non-modified MSCs were incubated with FITC-SDF-1 for 30 minutes of incubation at 4° C. under gentle shaking. […] In order to avoid unknown effects of rhodamine on the interaction between SDF-1 and CXCR4, FITC-SDF-1 was added to MSCs modified with DMPE-PEG-CXCR4. […] Weak SDF-1 intensity was detected on the surface of the non-modified MSCs (see FIG. 12; Control+FITC-SDF-1).
Additional evidence of SDF-1 binding to CXCR4 with CXCR4 detection on the surface of the MSC was achieved by the same methods as employed in the previous experiment. MSCs were modified with DMPE-PEG-CXCR4 and the modified MSCs were incubated with FITC-SDF-1.

SDF-1, sequence (P48061 22-93, species assumed): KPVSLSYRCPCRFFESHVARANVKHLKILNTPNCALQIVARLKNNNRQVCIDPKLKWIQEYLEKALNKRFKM

For the substance “DMPE-PEG-Rho-CXCR4: DMPE-PEG conjugated with rhodamine-labeled rCXCR4”, the “SDF-1 binding on the surface of modified MSCs (confocal)” value is given as “FITC-SDF-1 was co-localized with CXCR4”.
